Results as given in patent US20250145722A1, “ANTI-GAL3 ANTIBODIES AND METHODS OF USE” (TrueBinding, Inc., priority 2020, published 2025).

Tests used:
[1] = target: T1, interaction of Gal3 and APP695 (Homo sapiens, UniProt P17931); assay: Gal3-APP695 blocking ELISA; assay type: binding
T1 construct: purchased R&D Systems; QCB200349; QCB200352; host or cells: mammalian (R&D 8259-GA) or E. coli (QCB200349)
Experimental: To identify Gal3-targeted antibodies with the ability to block the interaction of Gal3 and APP695, purified Gal3 and APP695 proteins were incubated in the presence (or absence) of various Gal3-targeted or control antibodies, or without antibody, and protein interaction was evaluated by ELISA.
Human GAL3 (mammalian, R&D Systems, 8259-GA; E-coli derived, untagged, TrueBinding, QCB200349; or His-tagged, TrueBinding, QCB200352) was diluted in PBS (Corning, 21-030-CM) to a concentration of 4 μg/mL and added to the wells of a 96-well ELISA plate (Thermo Fisher, 44-2404-21). After incubating the plate at 4° C. overnight, the plate was washed three times with PBST (PBS with 0.05% Tween 20 [VWR, 0777]) and then blocked for an hour with 2% BSA (EMD Millipore, 126609) in PBST at room temperature with gentle rocking. Human APP695 (R&D Systems, 9937-AP) was biotinylated with EZ Link Sulfo-NHS-LC-Biotin (ThermoFisher Scientific, A39257) and desalted using a Zeba Spin Desalting Column (ThermoFisher Scientific, 89882), following the manufacturer's instructions. […] The reaction was stopped with 1M HCl (JT Baker, 5620-02) and read using a plate reader (Molecular Devices) at absorbance of 450 nm. Percent blockade of Gal3-APP695 interaction was calculated as the fraction of signal obtained in the absence of antibody with the background signal subtracted.

human Gal3 = target: T2, human Gal3 (Homo sapiens, UniProt P17931); assay: Epitope binning assay, sandwich format, SPR-based Carterra LSA; conditions: competitive binding for hGAL3
T2 construct: purchased AcroBio (Acro Biosystems) GA3-H5129
T2 sequence (P17931 whole entry): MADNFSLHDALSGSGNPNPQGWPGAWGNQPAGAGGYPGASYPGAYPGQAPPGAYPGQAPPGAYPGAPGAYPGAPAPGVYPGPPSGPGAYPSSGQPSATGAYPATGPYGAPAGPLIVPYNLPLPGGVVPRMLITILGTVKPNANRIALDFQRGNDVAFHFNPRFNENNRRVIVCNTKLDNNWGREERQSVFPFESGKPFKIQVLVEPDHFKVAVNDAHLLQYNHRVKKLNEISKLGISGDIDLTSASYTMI
Experimental: First, the purified antibodies were diluted to 10 μg/ml concentration in 10 mM NaOAc (pH 5.0) and then were covalently coupled via amine group to HC200M chip activated by EDC and S-NHS to immobilize antibodies to different positions of a 384-spot array. One hundred thirty-eight binning cycles were run on the array of immobilized antibodies. In each cycle, first, human Gal3 (AcroBio GA3-H5129) was injected over the entire array to bind to different antibodies (primary antibody), followed by one antibody (secondary antibody) selected among the panel of 150 anti-GAL3 antibodies tested. At the end of each cycle, the array was regenerated by 10 mM Glycine (pH 2.0) to remove bound antigen and secondary antibody from the array. The data analysis was done using the Epitope software by CarterraBio.

T1 sequence (P17931 2-250 limits assumed): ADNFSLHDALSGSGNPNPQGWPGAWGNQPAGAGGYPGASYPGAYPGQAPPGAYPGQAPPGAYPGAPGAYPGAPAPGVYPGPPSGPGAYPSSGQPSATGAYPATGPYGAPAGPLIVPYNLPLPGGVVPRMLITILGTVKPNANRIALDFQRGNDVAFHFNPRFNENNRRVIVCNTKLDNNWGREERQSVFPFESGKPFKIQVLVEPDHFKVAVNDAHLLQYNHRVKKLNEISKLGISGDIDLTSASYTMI

Blocking of Gal3-APP695 binding (in words) [1] | Epitope bin (human Gal3) | Molecule
did not impact | – | F849C.8D12: anti-Gal3 antibody (antibody, V domains shown, misc_feature 1..363 849.8D12 VH nucleic acid; misc_feature 1..318 849.8D12 VL nucleic acid, anti-Gal3 antibody) VH: EVQLQQSGPELVKPGSSVKISCKASRYTFTDYNMDWVKQSHGKRLEWIGYIYPNNGGTGYNQKFKGKATLTVDKSSSTAYMELRSLTSEDSAVYYCARSYYDGSYDAMDYWGQGTSVTVSS VL: DIQMTQTTSSLSASLGDRVTISCSASQGISNYLNWYQQKPDGTVKLLIYYTSSLHSGVPSRFSGSGSGTDYSLTISNLEPEDIATYYCQQYSKLPRTFGGGTKLEI
– | bin 16 | 846.2B11: anti-Gal3 antibody (antibody, V domains shown, misc_feature 1..354 846.2B11 VH nucleic acid; misc_feature 1..333 846.2B11 VL nucleic acid, anti-Gal3 antibody) VH: QVQLQQSGPELVRPGALVKISCKASGYTFTSYDINWVKQRPGQGLEWIGWIYPGDGSTKYNEKFKGKATLTADKSSSTAYMQLSSLTSENSAVYFCAREAASNAMDYWGQGTSVTVSS VL: DIVLTQSPASLGVSLGQRATISCRASKSVSTSGYSYMHWYQQKPGQPPKLLIYLASILESGVPARFSGSGSGTDFTLNIHPVEEEDAAIYYCQHSRELPLTFGAGTKLELK
